# Experimental data taken from paper PMC12822413.
# Assays:
# [1] = biological target: endogenous TSHR on Graves' orbital fibroblasts (GOFs) (Homo sapiens) (UniProt P16473); assay: flow cytometry; conditions: Flow: DPBS, 5 mM MgCl2, 4.5 g/L glucose, 0.1 mg/mL yeast tRNA, 1 mg/mL BSA, 4 C 30 min; SPR: DPBS, 5 mM Mg2+, pH 7.4, 25 C
# [2] = biological target: TSHR on TSHR-293T cells (Homo sapiens) (UniProt P16473); assay: flow cytometry; conditions: Flow: DPBS, 5 mM MgCl2, 4.5 g/L glucose, 0.1 mg/mL yeast tRNA, 1 mg/mL BSA, 4 C 30 min; SPR: DPBS, 5 mM Mg2+, pH 7.4, 25 C
# Chain of TSHR on TSHR-293T cells (Homo sapiens) (P16473 21-764): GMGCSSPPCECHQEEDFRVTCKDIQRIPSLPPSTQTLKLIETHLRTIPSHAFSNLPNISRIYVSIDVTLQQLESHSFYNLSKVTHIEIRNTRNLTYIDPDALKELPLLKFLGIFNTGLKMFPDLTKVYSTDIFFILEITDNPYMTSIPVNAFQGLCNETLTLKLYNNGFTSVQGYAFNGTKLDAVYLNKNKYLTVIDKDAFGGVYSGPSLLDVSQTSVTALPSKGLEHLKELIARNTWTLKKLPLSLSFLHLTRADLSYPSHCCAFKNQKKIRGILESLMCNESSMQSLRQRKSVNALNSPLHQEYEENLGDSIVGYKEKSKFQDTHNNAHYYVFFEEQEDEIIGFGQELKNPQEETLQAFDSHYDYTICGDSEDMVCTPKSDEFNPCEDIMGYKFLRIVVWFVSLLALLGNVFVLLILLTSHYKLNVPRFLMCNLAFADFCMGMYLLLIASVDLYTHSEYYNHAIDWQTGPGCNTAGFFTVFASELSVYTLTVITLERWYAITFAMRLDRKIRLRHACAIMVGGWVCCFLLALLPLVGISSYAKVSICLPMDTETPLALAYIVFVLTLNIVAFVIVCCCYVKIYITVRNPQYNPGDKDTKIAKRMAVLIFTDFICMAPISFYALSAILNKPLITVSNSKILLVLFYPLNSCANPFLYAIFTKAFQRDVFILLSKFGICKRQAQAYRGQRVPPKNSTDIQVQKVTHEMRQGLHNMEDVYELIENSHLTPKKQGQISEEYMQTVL
# Chain of endogenous TSHR on Graves' orbital fibroblasts (GOFs) (Homo sapiens) (P16473 21-764): as above
sequence,measurement,setting,value
ACCGACCGTGCTGGACTCAGATGAACAATCGATGGAAGATTGGGTCGCACCGGCCTCTTTCACTATGAGCGAGCCTGGCG [YC3],Kd,[1],99.2 nM
same,Kd,[2],260 nM
